# In patent publication US20240366776A1 (Hoffmann-La Roche, published 2024):
# Where a chain is given by its changes, count along the chain named.
# T1: biotinylated IL-2 receptor beta gamma heterodimer Fc (IL-2RBG; Acro ILG-H5254) (UniProt P14784 27-239; P31785 23-262, biotinylated)
# T1 construct: bought heterodimer
# T1 sequence (looked up) 1: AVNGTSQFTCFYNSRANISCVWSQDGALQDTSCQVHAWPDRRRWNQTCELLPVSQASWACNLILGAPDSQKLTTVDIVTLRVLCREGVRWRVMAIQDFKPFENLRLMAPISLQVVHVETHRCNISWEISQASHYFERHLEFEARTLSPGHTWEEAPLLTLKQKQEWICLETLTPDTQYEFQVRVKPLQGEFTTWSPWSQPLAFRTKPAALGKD
# T1 sequence (looked up) 2: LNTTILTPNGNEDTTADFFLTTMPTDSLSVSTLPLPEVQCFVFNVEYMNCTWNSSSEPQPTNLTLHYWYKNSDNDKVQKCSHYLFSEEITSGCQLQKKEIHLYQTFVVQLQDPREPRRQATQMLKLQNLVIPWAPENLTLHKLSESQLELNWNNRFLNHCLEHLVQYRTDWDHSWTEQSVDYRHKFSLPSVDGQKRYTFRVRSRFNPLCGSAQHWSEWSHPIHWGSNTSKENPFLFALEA
# B1: AF003232 (other)
# heavy 1: APASSSTKKTQLQLEHLLLDLQMILNGINNYKNPKLTRMLTAKFAMPKKATELKHLQCLEEELKPLEEVLNGAQSKNFHLRPRDLISNINVIVLELKGSETTFMCEYADETATIVEFLNRWITFAQSIISTLTGGGGSGGGGSGGGGSGGGGSQVQLVQSGAEVKKPGASVKVSCKASGDTFTRHYVHWVRQAPGQGLEWMGIINPSGGYASYAQKFQGRVTMTRDTSTSTVYMELSSLRSEDTAVYYCAAGLFIWGQGTLVTVSSAKTTAPSVYPLAPVCGDTTGSSVTLGCLVKGYFPEPVTLTWNSGSLSSGVHTFPAVLQSDLYTLSSSVTVTSSTWPSQSITCNVAHPASSTKVDKKIEPRGPTIKPCPPCKCPAPNAAGGPSVFIFPPKIKDVLMISLSPIVTCVVVDVSEDDPDVQISWFVNNVEVHTAQTQTHREDYNSTLRVVSALPIQHQDWMSGKEFKCKVNNKDLGAPIERTISKPKGSVRAPQVYVLPPPEEEMTKKQVTLTCMVTDFMPEDIYVEWTNNGKTELNYKNTEPVLDSDGSYFMYSDLRVEKKNWVERNSYSCSVVHEGLHNHHTTESFSRTPGK
# heavy 2: QVQLVQSGAEVKKPGASVKVSCKASGDTFTRHYVHWVRQAPGQGLEWMGIINPSGGYASYAQKFQGRVTMTRDTSTSTVYMELSSLRSEDTAVYYCAAGLFIWGQGTLVTVSSAKTTAPSVYPLAPVCGDTTGSSVTLGCLVKGYFPEPVTLTWNSGSLSSGVHTFPAVLQSDLYTLSSSVTVTSSTWPSQSITCNVAHPASSTKVDKKIEPRGPTIKPCPPCKCPAPNAAGGPSVFIFPPKIKDVLMISLSPIVTCVVVDVSEDDPDVQISWFVNNVEVHTAQTQTHREDYNSTLRVVSALPIQHQDWMSGKEFKCKVNNKDLGAPIERTISKPKGSVRAPQVYVLPPPEKEMTKKQVSLTCLVKDFMPEDIYVEWTNNGKTELNYKNTEPVLKSDGSYFMYSKLTVEKKNWVERNSYSCSVVHEGLHNHHTTKSFSRTPGGGGSGGGSHHHHHH
# light: DIQMTQSPSSLSASVGDRVTITCRASQSIGRWLAWYQQKPGKAPKLLIYSASNLETGVPSRFSGSGSGTDFTLTISSLQPEDFATYYCQQYESFPVTFGPGTKVDIKRADAAPTVSIFPPSSEQLTSGGASVVCFLNNFYPKDINVKWKIDGSERQNGVLNSWTDQDSKDSTYSMSSTLTLTKDEYERHNSYTCEATHKTSTSPIVKSFNRNEC
# notes: also called AF3232
# B2: AF003955 (other)
# heavy 1: B1 heavy 1 with D180H, H185Y, V187M, S212T, A251S
# heavy 2: B1 heavy 2 with D27H, H32Y, V34M, S59T, A98S
# light: B1 light with G30N, R31S, S50A, A51T, N53T, T56S, E92Y, S93R, P100Q, D105E
# notes: also called AF3955
# B3: AF003740 (other)
# heavy 1: B1 heavy 1 with H185Y
# heavy 2: QVQLVQSGAEVKKPGASVKVSCKASGDTFTRYYVHWVRQAPGQGLEWMGIINPSGGYASYAQKFQGRVTMTRDTSTSTVYMELSSLRSEDTAVYYCAAGLFIWGQGTLVTVSSAKTTAPSVYPLAPVCGDTTGSSVTLGCLVKGYFPEPVTLTWNSGSLSSGVHTFPAVLQSDLYTLSSSVTVTSSTWPSQSITCNVAHPASSTKVDKKIEPRGPTIKPCPPCKCPAPNAAGGPSVFIFPPKIKDVLMISLSPIVTCVVVDVSEDDPDVQISWFVNNVEVHTAQTQTHREDYNSTLRVVSALPIQHQDWMSGKEFKCKVNNKDLGAPIERTISKPKGSVRAPQVYVLPPPEKEMTKKQVSLTCLVKDFMPEDIYVEWTNNGKTELNYKNTEPVLKSDGSYFMYSKLTVEKKNWVERNSYSCSVVHEGLHNHHTTKSFSRTPGK
# light: B1 light with E92N
# notes: also called AF3740
# B4: AF003951 (other)
# heavy 1: APASSSTKKTQLQLEHLLLDLQMILNGINNYKNPKLTRMLTAKFAMPKKATELKHLQCLEEELKPLEEVLNGAQSKNFHLRPRDLISNINVIVLELKGSETTFMCEYADETATIVEFLNRWITFAQSIISTLTGGGGSGGGGSGGGGSGGGGSQVQLVQSGAEVKKPGASVKVSCKASGYTFTDYYMHWVRQAPGQGLEWMGIINPRAGYTSYALKFQGRVTMTRDTSTSTVYMELSSLRSEDTAVYYCTSGWDVWGQGTLVTVSSAKTTAPSVYPLAPVCGDTTGSSVTLGCLVKGYFPEPVTLTWNSGSLSSGVHTFPAVLQSDLYTLSSSVTVTSSTWPSQSITCNVAHPASSTKVDKKIEPRGPTIKPCPPCKCPAPNAAGGPSVFIFPPKIKDVLMISLSPIVTCVVVDVSEDDPDVQISWFVNNVEVHTAQTQTHREDYNSTLRVVSALPIQHQDWMSGKEFKCKVNNKDLGAPIERTISKPKGSVRAPQVYVLPPPEEEMTKKQVTLTCMVTDFMPEDIYVEWTNNGKTELNYKNTEPVLDSDGSYFMYSDLRVEKKNWVERNSYSCSVVHEGLHNHHTTESFSRTPGK
# heavy 2: QVQLVQSGAEVKKPGASVKVSCKASGYTFTDYYMHWVRQAPGQGLEWMGIINPRAGYTSYALKFQGRVTMTRDTSTSTVYMELSSLRSEDTAVYYCTSGWDVWGQGTLVTVSSAKTTAPSVYPLAPVCGDTTGSSVTLGCLVKGYFPEPVTLTWNSGSLSSGVHTFPAVLQSDLYTLSSSVTVTSSTWPSQSITCNVAHPASSTKVDKKIEPRGPTIKPCPPCKCPAPNAAGGPSVFIFPPKIKDVLMISLSPIVTCVVVDVSEDDPDVQISWFVNNVEVHTAQTQTHREDYNSTLRVVSALPIQHQDWMSGKEFKCKVNNKDLGAPIERTISKPKGSVRAPQVYVLPPPEKEMTKKQVSLTCLVKDFMPEDIYVEWTNNGKTELNYKNTEPVLKSDGSYFMYSKLTVEKKNWVERNSYSCSVVHEGLHNHHTTKSFSRTPGGGGSGGGSHHHHHH
# light: B1 light with G30S, R31T, S50A, N53S, E55D, T56S, Y91S, E92Y, P100Q, D105E
# notes: also called AF3951
# B5: AF003952 (other)
# heavy 1: B4 heavy 1 with D184R
# heavy 2: B4 heavy 2 with D31R
# light: B1 light with G30S, R31T, S50A, N53S, E55D, T56S, Y91S, E92Y, P100Q, D105E
# notes: also called AF3952
# B6: AF003945 (other)
# heavy 1: B1 heavy 1 with H185Y
# heavy 2: B1 heavy 2 with H32Y
# light: B1 light with R31S, E92N
# notes: also called AF3945
# B7: AF003747 (other)
# heavy 1: B1 heavy 1 with H185Y
# heavy 2: B3 heavy 2
# light: B1 light with W32Y, E92N
# notes: also called AF3747
# B8: AF003956 (other)
# heavy 1: B4 heavy 1
# heavy 2: B4 heavy 2
# light: DIQMTQSPSSLSASVGDRVTITCRASQSISTWLAWYQQKPGKAPKLLIYAASSLDSGVPSRFSGSGSGTDFTLTISSLQPEDFATYYCQQSYRFPVTFGQGTKVEIKRADAAPTVSIFPPSSEQLTSGGASVVCFLNNFYPKDINVKWKIDGSERQNGVLNSWTDQDSKDSTYSMSSTLTLTKDEYERHNSYTCEATHKTSTSPIVKSFNRNEC
# notes: also called AF3956
# B9: AF003953 (other)
# heavy 1: B4 heavy 1 with D184T
# heavy 2: B4 heavy 2 with D31T
# light: B8 light with R93S
# notes: also called AF3953
# B10: AF003749 (other)
# heavy 1: B1 heavy 1 with H185Y
# heavy 2: B3 heavy 2
# light: B1 light with W32Y, S50Y, E92N
# notes: also called AF3749
# B11: AF003753 (other)
# heavy 1: B1 heavy 1 with H185Y
# heavy 2: B3 heavy 2
# light: B1 light
# notes: also called AF3753
# Target: T1, biotinylated IL-2 receptor beta gamma …
# Assay: ELISA, captured complex, biotin-IL-2RBG 10 nM, PD-1 Fc titrated
# Experimental: The DBA-cytokine complexes and control antibody-cytokine complexes were produced in two formats: (1) “Symmetric” immunocytokine (shown in FIG. 2E); or (2) “Asymmetric” immunocytokine (shown in FIG. 2B) by expression in mammalian cells and purified using standard protocols. […] To perform the assay, 384-well ELISA plates were coated with anti-Fc antibody at 1 micrograms/ml in 100 mM bicarbonate solution pH 9.0 overnight at 4° C. and washed twice with SUPERBLOCK™. Antibody-cytokine complexes were then added to each well at a constant concentration of 6 nM and allowed to incubate for 1 hour and washed three times in PBS plus 0.05% TWEEN® 20 (PBST). Titrated concentrations of PD-1 Fc or an IgG1 control Fc were added and allowed to incubate for 15 minutes before the addition of a constant amount of biotinylated IL-2RBG at 10 nM. The plates were incubated for an additional 30 minutes, washed and biotinylated IL-2RBG detection was performed using streptavidin-HRP and standard ELISA protocols.
row,binding result,Binder
1,binds,B1
2,binds,B2
3,binds,B3
4,binds,B4
5,binds,B5
6,binds,B6
7,binds,B7
8,binds,B8
9,binds,B9
10,binds,B10
11,binds,B11
